From article PMC4606517, “Water-mediated recognition of t1-adenosine anchors Argonaute2 to microRNA targets” come the findings set out here.

For data set [1], the target named is Ago2 wild type (Homo sapiens, UniProt Q9UKV8 1-859). Kind of data set: filter binding; guide-loaded Ago2; target Kd; Filter binding: 30 mM Tris pH 8.0, 0.1 M K acetate, 2 mM Mg acetate, 0.5 mM TCEP, 0.005% NP-40, 0.01 mg/ml yeast tRNA, room temp, 45 min, 0.1 nM target; smFRET: 50 mM Tris pH 8.0, 50 mM NaCl, 60 mM KCl (RISC assembly buffer), 23 C. As to conditions: protein: recombinant; tags: His6; guide g2-g9 pairs target nt 1-8; 3' overhangs; t1 = target nt 9.
Sequence of Ago2 wild type (Q9UKV8 whole entry): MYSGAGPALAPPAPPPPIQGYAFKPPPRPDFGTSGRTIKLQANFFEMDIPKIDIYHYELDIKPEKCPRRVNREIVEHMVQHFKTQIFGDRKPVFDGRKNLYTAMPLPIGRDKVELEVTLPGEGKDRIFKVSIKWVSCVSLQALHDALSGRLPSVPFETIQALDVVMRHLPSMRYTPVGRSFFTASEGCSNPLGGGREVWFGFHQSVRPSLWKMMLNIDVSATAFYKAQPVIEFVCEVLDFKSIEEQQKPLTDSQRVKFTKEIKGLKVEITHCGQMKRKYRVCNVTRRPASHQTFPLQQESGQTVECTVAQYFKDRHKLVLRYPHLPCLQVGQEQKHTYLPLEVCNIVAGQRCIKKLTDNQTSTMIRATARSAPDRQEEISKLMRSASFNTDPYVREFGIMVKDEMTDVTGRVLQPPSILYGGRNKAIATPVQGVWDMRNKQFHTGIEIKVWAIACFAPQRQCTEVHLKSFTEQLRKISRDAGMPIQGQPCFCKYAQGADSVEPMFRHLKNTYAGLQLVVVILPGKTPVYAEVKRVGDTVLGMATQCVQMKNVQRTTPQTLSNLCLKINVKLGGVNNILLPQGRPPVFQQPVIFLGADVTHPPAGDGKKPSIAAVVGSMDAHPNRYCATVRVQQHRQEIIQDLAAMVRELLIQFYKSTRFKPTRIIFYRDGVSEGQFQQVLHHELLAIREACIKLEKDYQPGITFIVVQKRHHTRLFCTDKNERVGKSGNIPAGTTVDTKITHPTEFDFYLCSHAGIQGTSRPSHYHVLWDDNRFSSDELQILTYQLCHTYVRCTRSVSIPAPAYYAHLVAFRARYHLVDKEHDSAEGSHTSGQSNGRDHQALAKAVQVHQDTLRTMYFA

Data set [2] concerns the target Ago2 A481T (Homo sapiens, UniProt Q9UKV8 1-859, A481T). The description is as above. The following applies: protein: recombinant; tags: His6; guide g2-g9 pairs target nt 1-8; 3' overhangs; t1 = target nt 9.

Sequence of Ago2 A481T (Q9UKV8 whole entry A481T): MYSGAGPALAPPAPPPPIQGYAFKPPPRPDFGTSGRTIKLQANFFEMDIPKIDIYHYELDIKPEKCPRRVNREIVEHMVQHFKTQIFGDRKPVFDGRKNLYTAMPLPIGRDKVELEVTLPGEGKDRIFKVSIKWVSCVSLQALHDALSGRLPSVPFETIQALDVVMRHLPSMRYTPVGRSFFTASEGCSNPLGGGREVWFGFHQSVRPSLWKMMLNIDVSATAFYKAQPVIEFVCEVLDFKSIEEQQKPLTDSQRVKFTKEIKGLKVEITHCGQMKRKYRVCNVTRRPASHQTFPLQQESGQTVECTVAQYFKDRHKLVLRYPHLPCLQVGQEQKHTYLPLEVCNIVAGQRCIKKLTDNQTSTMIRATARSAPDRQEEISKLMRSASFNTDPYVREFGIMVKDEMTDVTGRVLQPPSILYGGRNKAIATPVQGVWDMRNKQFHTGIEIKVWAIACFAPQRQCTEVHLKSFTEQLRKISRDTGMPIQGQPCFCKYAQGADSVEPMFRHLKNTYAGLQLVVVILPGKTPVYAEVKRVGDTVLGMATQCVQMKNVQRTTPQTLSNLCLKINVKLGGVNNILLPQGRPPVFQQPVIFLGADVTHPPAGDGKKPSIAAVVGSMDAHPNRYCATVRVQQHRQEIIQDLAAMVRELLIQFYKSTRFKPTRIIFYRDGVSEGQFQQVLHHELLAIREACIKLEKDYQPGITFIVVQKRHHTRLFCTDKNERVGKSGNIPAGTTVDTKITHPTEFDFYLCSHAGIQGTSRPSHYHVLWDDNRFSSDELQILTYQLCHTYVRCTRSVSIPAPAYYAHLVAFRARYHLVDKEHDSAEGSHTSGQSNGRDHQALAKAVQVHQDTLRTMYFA

B1: guide + t1C target (dsRNA)
RNA 1: UUCACAUUGCCCAAGUCUCUU
RNA 2: CAAUGUGACAA
modifications: 5'-phosphate on guide
The Kd is the free concentration of one partner at which half of the binding sites on the other are occupied at equilibrium, for simple one-to-one binding. As for B1, the Kd in data set [1] worked out at 1.8 ± 0.12 nM.

B2: guide + t1m6A target (dsRNA)
RNA 1: UUCACAUUGCCCAAGUCUCUU
RNA 2: CAAUGUGAAAA
modifications: 5'-phosphate on guide; target nt 9 = N6-methyladenosine (written A)
For the molecule B2, in data set [1], the Kd was determined as 1.8 ± 0.12 nM.

B3: guide + t1U target (dsRNA)
RNA 1: UUCACAUUGCCCAAGUCUCUU
RNA 2: CAAUGUGAUAA
modifications: 5'-phosphate on guide
For B3, the Kd in data set [1] amounted to 1.9 ± 0.1 nM.

B4: guide + t1A target (dsRNA)
RNA 1: UUCACAUUGCCCAAGUCUCUU
RNA 2: CAAUGUGAAAA
modifications: 5'-phosphate on guide
In the case of B4, the Kd in data set [1] was found to be 0.75 ± 0.04 nM; in data set [2], 1.5 ± 0.13 nM.

B5: guide + t1DAP target (dsRNA)
RNA 1: UUCACAUUGCCCAAGUCUCUU
RNA 2: CAAUGUGAAAA
modifications: 5'-phosphate on guide; target nt 9 = 2,6-diaminopurine (written A)
B5: the Kd in data set [1] stood at 0.45 ± 0.03 nM.

B6: guide + t1G target (dsRNA)
RNA 1: UUCACAUUGCCCAAGUCUCUU
RNA 2: CAAUGUGAGAA
modifications: 5'-phosphate on guide
In the case of B6, the Kd in data set [1] worked out at 1.9 ± 0.09 nM; in data set [2] it was 1.8 ± 0.11 nM.
